Test results taken from paper PMC4644379.

Tests used:
[1] = target: NKG2D on human NK cells (human (endogenous in NK cells and CD8+ T cells from PBMC)) (UniProt P26718)
[2] = target: NKG2D on human NK cells (human (endogenous in NK cells and CD8+ T cells from PBMC)) (UniProt P26718); remark: listed apart in the source
[3] = target: NKG2D on human NK cells (human (endogenous in NK cells and CD8+ T cells from PBMC)) (UniProt P26718); remark: listed apart in the source
[4] = target: NKG2D on human NK cells (human (endogenous in NK cells and CD8+ T cells from PBMC)) (UniProt P26718); remark: listed apart in the source
[5] = target: NKG2D on human NK cells (human (endogenous in NK cells and CD8+ T cells from PBMC)) (UniProt P26718); remark: listed apart in the source
[6] = target: NKG2D on human NK cells (human (endogenous in NK cells and CD8+ T cells from PBMC)) (UniProt P26718); remark: listed apart in the source
[7] = target: NKG2D on human NK cells (human (endogenous in NK cells and CD8+ T cells from PBMC)) (UniProt P26718); remark: listed apart in the source

Sequence of UniProt P26718 (P26718 whole entry): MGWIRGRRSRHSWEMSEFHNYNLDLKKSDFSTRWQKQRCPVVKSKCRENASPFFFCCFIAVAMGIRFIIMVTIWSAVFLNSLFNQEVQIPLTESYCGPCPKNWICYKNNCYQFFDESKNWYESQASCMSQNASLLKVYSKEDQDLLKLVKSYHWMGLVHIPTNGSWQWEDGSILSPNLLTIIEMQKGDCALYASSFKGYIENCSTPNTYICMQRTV

| Substance | NKG2D expression on CD56brightCD16+ NK cells after 4 and 24 h, lower with L-MICA-129Met than with L-MICA-129Val clones (%-points lower than with L-MICA-129Val) [1] | NKG2D expression on CD56brightCD16- NK cells after 4 and 24 h, lower with L-MICA-129Met than with L-MICA-129Val clones (%-points lower than with L-MICA-129Val) [1] | NKG2D expression on CD56dimCD16+ NK cells after 4 and 24 h, lower with L-MICA-129Met than with L-MICA-129Val clones (%-points lower than with L-MICA-129Val) [1] | IFNγ release (ELISA) of NK cells co-cultured 24 h with L cell clones, difference to L-MICA-129Val, adjusted for MICA expression (pg/ml higher than with L-MICA-129Val) [2] | IFNγ release (ELISA) of NK cells, effect of MICA expression intensity on target clones (pg/ml per MFI unit) [2] | down-regulation of NKG2D on NK cells co-cultured 4 and 24 h with L cell clones: MFI of NKG2D against L-con [3] | down-regulation of NKG2D on NK cells co-cultured 4 and 24 h with L cell clones: percentage of NKG2D+ NK cells against L-con [3] | down-regulation of NKG2D on NK cells: percentage of NKG2D+ cells, difference between L-MICA-129Met and L-MICA-129Val targets (%-points against L-MICA-129Val) [3] | regression coefficient of killing by LAK cells against MICA expression intensity on target clones [4] | down-regulation of NKG2D on CD8+ T cells co-cultured with L cell clones: MFI of NKG2D, difference to L-MICA-129Val (MFI units more than with L-MICA-129Val) [5] | down-regulation of NKG2D on CD8+ T cells co-cultured with L cell clones: proportion of NKG2D+CD3+CD8+ cells, difference to L-MICA-129Val (%-points more than with L-MICA-129Val) [5] | regression coefficient of the MFI of CD107a on NK cells against MICA expression intensity on target clones [6] | regression coefficient of the MFI of IFNγ in CD56brightCD16- NK cells against MICA expression intensity [7] | IFNγ release (ELISA) of NK cells, effect of MICA expression intensity on target clones (pg/ml per MFI unit of MICA) [2] | relative lysis of L cell clones by LAK cells (51Cr release, E:T 200:1), difference to L-MICA-129Met, adjusted for MICA expression (%-points reduced against L-MICA-129Met) [4] | degranulation of NK cells exposed to L cell clones: MFI of CD107a, difference to L-MICA-129Met, adjusted for MICA expression (MFI units lower than with L-MICA-129Met) [6] | degranulation of NK cells exposed to L cell clones: percentage of CD107a+ NK cells, difference to L-MICA-129Met, adjusted for MICA expression (%-points less than with L-MICA-129Met) [6] | intracellular IFNγ (MFI) in CD56brightCD16- NK cells co-cultured 4 h with L cell clones, difference to L-MICA-129Met (MFI units lower than with L-MICA-129Met) [7] | percentage of IFNγ+ CD56brightCD16- NK cells co-cultured 4 h with L cell clones, difference to L-MICA-129Met (%-points less than with L-MICA-129Met) [7] | regression coefficient of the proportion of IFNγ+ CD56brightCD16- NK cells against MICA expression intensity [7] |
| --- | --- | --- | --- | --- | --- | --- | --- | --- | --- | --- | --- | --- | --- | --- | --- | --- | --- | --- | --- | --- |
| MICA-129Met variant (MICA*00701 allele) expressed on L cells (from UniProt Q29983 24-383) (ligand) | 16.2 | 15.8 | 19.5 | 176 | 0.142 | 13.7 MFI units | 19.4 %-points | -9.3 | -0.0834 | 12.1 | 35.8 | 0.05 | -1.11 |  |  |  |  |  |  |  |
| MICA-129Val variant (MICA*00701 with valine at position 129) expressed on L cells (from UniProt Q29983 24-383) (ligand) |  |  |  |  |  | 11.8 MFI units | 9.5 %-points |  | 0.126 |  |  | 0.29 | 0.09 | 1.1 | 13 | 38.5 | 10.1 | 12.5 | 7.5 | 0.14 |
